For the experiment, the target named is T1, Caveolin-1 1-178 (UniProt Q03135).
T1 chain: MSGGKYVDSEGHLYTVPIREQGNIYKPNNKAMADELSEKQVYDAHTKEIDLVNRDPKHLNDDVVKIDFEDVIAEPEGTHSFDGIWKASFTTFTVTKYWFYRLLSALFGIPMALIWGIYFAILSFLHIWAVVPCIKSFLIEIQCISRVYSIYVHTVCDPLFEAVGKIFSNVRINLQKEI
The experiment in a line: given as Ka.

B1: PrP (protein)
chain: not shown
For orientation: Kd means the equilibrium constant for the complex coming apart. The low end stands for higher affinity, the high end for lower affinity. Take B1: the Kd was about 1.18 nM.

The record behind these values is article PMC1559926 (2006).
